B1: Tumor protein p73, residues 487 to 549; numbered along this chain, O15350 (parent)
chain: YHADPSLVSFLTGLGCPNCIEYFTSQGLQSIYHLQNLTIEDLGALKIPEQYRMTIWRGLQDLK
B2: Homeobox protein SIX3, residues 212 to 262; numbered along this chain, O95343 (parent)
chain: CFKERTRSLLREWYLQDPYPNPSKKRELAQATGLTPTQVGNWFKNRRQRDR

Variants of: B1
Assay: abundance fitness (aPCA) (normalised: wild type 0, dead -1); higher = more abundant; growth selection in yeast, the domain comes from the species named
Conditions: Homo sapiens

Abundance fitness, by site and new letter:
L59: C -0.106, N -0.631, Y -0.097, M -0.042, G -0.538, H -0.801, T -0.157, R -0.733, V 0.046, Q -0.554, F -0.065, E -0.95, K -0.561, W -0.213, A -0.054, S -0.265
D61: A -0.136, F -0.572, R -0.066, V -0.104, E -0.068, L -0.087, N -0.046, W -0.127, P -0.092, G 0.035, Q -0.126, T -0.003, K -0.103, M -0.002, I 0.006, C -0.245, H 0.039, Y -0.157
G58: P -0.433, S -0.104, L -1.02, I -0.68, D -0.528, R -0.197, E 0.014, T -0.358, A 0.038, Y -0.723, H -0.116, Q -0.117, W -0.932, V -0.846, M -0.896, F -0.708, N -0.36
Q60: E 0.101, T -0.017, P -0.388, S 0.018, G -0.027, H -0.246, V -0.041, W -0.068, D -0.01, A 0.047, L -0.013, K 0.117, N 0.089, Y 0.06, I 0.034, M 0.031, C -0.102, F -0.096
R57: E -0.058, W -0.114, S -0.114, V -0.255, L -0.069, N -0.134, T 0.024, K -0.011, Y -0.023, F 0.311, H 0.012, I -0.24, Q -0.036, D 0.011, A -0.068, G -0.01, C -0.192, P -0.625
L62: N 0.058, E -0.007, P -0.032, V -0.007, S -0.083, W 0.071, A -0.104, K -0.257, C -0.117, F -0.059, I -0.044, Y 0.008
W56: K -0.106, S 0.011, P -0.893, V -0.048, I 0.086, F 0.075, N -0.137, E -0.047, D -0.241, G -0.128, C -0.124, M -0.049, Y 0.037, A 0.014, Q 0.035, L 0.017, T 0.082, R -0.163
K63: P -0.394, E 0.103, A -0.082, S 0, N -0.245, H -0.34, Q 0.074, L -0.261, W -0.044, R -0.159, T 0.172, G -0.002, C -0.239
I55: P -1.08, R -0.807, S -0.881, E -0.869, M -0.241, V -0.041, F -0.601, N -0.559, Q -0.5, L -0.091, T -0.598, K -1.01, W -0.923

Variants of: B2
Assay: as above
Conditions: Homo sapiens

Abundance fitness of substitutions, site by site:
F2: E 0.037, H -0.083, N 0.149, R -0.324, T -0.106, C -0.315, P -0.258, I -0.047, A -0.183, D 0.361, L -0.022, M 0.253, K 0.009, G -0.04, Q -0.178, W -0.538, Y 0.079
R7: L -0.272, Q -0.137, S 0.006, N 0.188, V -0.03, P -0.702, H 0.238, I 0.083, E -0.181, F -0.419, T -0.403, D -0.26, G -0.261, M -0.128, W -0.091, Y 0.033
K3: N 0.165, Y -0.262, P -0.39, E 0.074, V -0.655, I -0.362, S -0.106, R -0.275, T -0.134, H -0.72, M -0.624, D -0.037, Q -0.216, A -0.3, C 0.158
W13: L -0.139, P -0.747, H -0.338, V -0.075, A 0.015, I -0.153, E -0.078, F -0.545, Q 0.026, S -0.069, D -0.527, M 0.012, C -0.08, K -0.399, N 0.097, T -0.066
L10: G -0.961, F -0.824, W -1.03, H -0.868, S -0.647, Y -0.561, Q -0.972, V -1.01, P -0.872, T -0.974, R -0.93, N -0.724, C -0.88, E -0.886, A -0.895, M -0.381
E4: W -0.684, F -0.226, Y -0.441, V -0.651, N -0.357, G -0.532, S -0.136, R -0.708, K -0.152, M -0.178, L -0.605, D -0.532, A -0.931, C -0.685
E12: I -0.618, W -0.185, T -0.285, P -0.872, A -0.256, N 0.23, S -0.236, Y -0.09, G -0.3, D -0.098, L -0.426, C -0.84, K -0.314, F -0.45, V -0.608, M -0.282
R11: M 0.077, H -0.227, E -0.047, Q -0.23, G -0.302, V -0.141, T 0.106, F -0.061, C -0.392, K -0.138, D -0.22, N -0.111, P -0.514, A -0.131, S -0.021, W -0.07, Y -0.408, L -0.026, I 0.004
S8: K 0.048
R5: K -0.394, N -0.225, P -0.329, L -0.283, E -0.098, I -0.418, S 0.187, Y -0.455, G -0.102, V 0.003, W -0.369, T -0.148, C -0.359, Q -0.317, H -0.522, M -0.16, D -0.18, A -0.075
C1: V -0.402, E -0.342, I 0.874, W -0.251, F 0.499, G -0.359, S -0.121
T6: N -0.409, F -0.504, E -0.287, V 0.057, C -0.533, Q -0.067, H 0.086, I 0.288, L -0.16, Y -0.289, G -0.192, K -0.513, R -0.401, M -0.115, S -0.354, A -0.268, W -0.434
L9: M -0.199, S -0.733, T -0.138, I -0.095, E -0.481, K -0.226, C -0.694, R -0.369, V -0.071, G -0.726, A -0.43, H -0.417, P -0.644, W -0.632, F -0.51, Q -0.266, N -0.8, Y -0.001, D -0.825

Source: the Human Domainome abundance scans (Beltran et al. 2025)
